Laboratory results as given in publication PMC9026390.

What was measured:
[1] = target: VvGH17 C-terminal-truncated mutant ΔC466 (Vibrio vulnificus); assay: native gel or EMSA; blue native PAGE, 5–10% gradient gel, 4 °C, 150 V for 3.5 h; 50 mM tricine, 15 mM bis-Tris/HCl, pH 7; cathode buffer with 0.02% Coomassie blue G250; monomer to trimer
[2] = target: glycoside hydrolase family 17 β-1,3-glucanase of Vibrio vulnificus (VvGH17), wild type (Vibrio vulnificus); assay: as above

Substance | stoichiometry N [1] | stoichiometry N [2]
VvGH17 C-terminal-truncated mutant ΔC466 (domain or fragment) | 3 | –
glycoside hydrolase family 17 β-1,3-glucanase of Vibrio vulnificus (VvGH17), wild type (enzyme) | – | 3
